# Laboratory results: paper doi:10.1101/625400, “Massively parallel reporter assays combined with cell-type specific eQTL informed multiple melanoma loci and identified a pleiotropic function of HIV-1 restriction gene, MX2, in melanoma promotion”
# B1: rs398206 A allele EMSA probe (dsDNA)
# DNA 1: GTCCGTCCCAACATGGCGGGT
# DNA 2: ACCCGCCATGTTGGGACGGAC
# Target: YY1 full-length recombinant (Active Motif 31332) (UniProt P25490 1-414)
# Assay: EMSA; 100-750 ng YY1, 10 mM Mg2+; EMSA: 10 mM Tris pH 7.5, 50 mM KCl, 1 mM DTT, 10 mM MgCl2, 4 C, 30 min (poly d(I-C) with nuclear extract)
# Details: protein: commercial; label: 5' biotin (both strands); blunt
# YY1 full-length recombinant (Active Motif 31332), sequence (P25490 whole entry): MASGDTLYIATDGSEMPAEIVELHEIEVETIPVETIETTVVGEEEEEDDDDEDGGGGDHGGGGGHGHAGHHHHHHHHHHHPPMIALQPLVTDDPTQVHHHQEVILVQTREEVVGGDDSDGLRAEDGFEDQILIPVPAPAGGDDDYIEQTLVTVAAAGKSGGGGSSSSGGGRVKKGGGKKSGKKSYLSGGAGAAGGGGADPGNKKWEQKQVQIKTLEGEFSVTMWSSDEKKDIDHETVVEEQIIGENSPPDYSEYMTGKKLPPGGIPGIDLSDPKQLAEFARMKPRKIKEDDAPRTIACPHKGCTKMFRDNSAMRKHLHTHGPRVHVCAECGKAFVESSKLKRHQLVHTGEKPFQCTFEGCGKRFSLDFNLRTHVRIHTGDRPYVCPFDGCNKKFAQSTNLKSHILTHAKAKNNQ
binder,measurement,value
B1,binding result,binds
